Experimental data published in publication PMC10382590, “Six states of Enterococcus hirae V-type ATPase reveals non-uniform rotor rotation during turnover” (Communications Biology, 2023).

T1: Enterococcus hirae V-ATPase a-subunit (Enterococcus hirae, UniProt P43439 1-664)
T1 construct: a-subunit (stator, membrane-integrated region and extrinsic arm) of the V-type Na+-ATPase of Enterococcus hirae; Modelled by homology (I-TASSER, template PDB 6C6L of another species); also called stator a-subunit; source: E. coli, recombinant; purified as part of the whole EhV-ATPase complex (Ni-NTA, Superdex 200, 0.05% DDM)
T1 sequence (looked up): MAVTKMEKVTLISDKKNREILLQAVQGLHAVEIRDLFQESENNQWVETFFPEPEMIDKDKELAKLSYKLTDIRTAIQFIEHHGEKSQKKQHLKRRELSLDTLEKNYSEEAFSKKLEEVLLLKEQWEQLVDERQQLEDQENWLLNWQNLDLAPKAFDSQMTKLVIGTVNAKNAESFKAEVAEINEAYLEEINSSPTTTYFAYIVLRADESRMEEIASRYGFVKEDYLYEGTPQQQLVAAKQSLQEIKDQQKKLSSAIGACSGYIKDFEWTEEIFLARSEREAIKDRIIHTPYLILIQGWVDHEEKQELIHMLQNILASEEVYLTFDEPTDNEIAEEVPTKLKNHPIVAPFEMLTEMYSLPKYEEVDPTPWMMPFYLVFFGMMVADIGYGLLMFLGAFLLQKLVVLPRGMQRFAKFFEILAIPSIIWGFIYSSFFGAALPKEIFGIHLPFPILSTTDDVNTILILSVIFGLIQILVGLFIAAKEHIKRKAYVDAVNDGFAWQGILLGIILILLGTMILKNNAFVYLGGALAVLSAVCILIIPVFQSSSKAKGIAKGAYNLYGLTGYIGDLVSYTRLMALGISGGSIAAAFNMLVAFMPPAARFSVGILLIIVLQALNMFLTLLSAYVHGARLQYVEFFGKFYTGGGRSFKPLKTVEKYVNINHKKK

B1: Enterococcus hirae V-ATPase EG peripheral stalk (complex)
chain 1: MPIDKIITQINETAQLERASFEEMKRKEIDQKFEVKKWQIEADFQKEKASKLEEIERSYRQLRNKQKMQVKQEILNAKQEVLQRLFTEATLQLENEPKEEQLALMKQMIQTLPINGTARLIPGEKSADILTPAVIAEWNEELPFELIREDFTEKAQAGLIIDDAGIQYNFLFSHLIKEIQETMSAEIAKELFD
chain 2: MARILTRIKEAEENNQKKEEQVKAELAQYEQLKNNELIDLNKEFQERLTKLMKEKEKNEEEVTEDEQHKLELILEQFRQKVLEIEKTYLEKEEEEIAKKKNLTNEIIERMKQNNGCH
notes: E-subunit of the V-type Na+-ATPase of Enterococcus hirae; G-subunit of the V-type Na+-ATPase of Enterococcus hirae; Two such stalks stand in the complex; E and G were modelled by homology (templates PDB 4DT0 and 5GAS of other species); also called EG stalk complex; EG stalks; source: E. coli, recombinant; purified as part of the whole EhV-ATPase complex (Ni-NTA, Superdex 200, 0.05% DDM)
B2: Enterococcus hirae V-ATPase d-subunit (natural protein, UniProt P43456 1-328, looked up)
chain: MEYHELNPLIRGRELELISKDTFEQMIQTDSIDSLGEILQSTIYQPYIYDGFDKDFEANLSQERSKLFQWLKESAPEPEIVWIYTMRYTFHNLKVLTKAEITGQNLDHLYIHDGFYSLEVLKDAIHTQVSVELPDSLMDYIREVHEYCEESTILQGIDVIYDRCFLTEQRRLGEQLGYPELLEEIIAFIDLTNITTTARGILQHRSAGFMTTVISSSGSIPKDTLLSFVRGEMASFTQFLLTTDYSELLKQVIHEEQIDLVSLEQLKDDYLSSFYQVAQTQAFGPLPLLAFLNAKEVESKNLRLLIIGKRNHFSLEQLKERMRQVYDL
notes: d-subunit (terminus of the rotor shaft) of the V-type Na+-ATPase of Enterococcus hirae; Modelled by homology (I-TASSER, template PDB 1R5Z of another species) and fitted as a rigid body; also called rotor shaft terminus; source: E. coli, recombinant; purified as part of the whole EhV-ATPase complex (Ni-NTA, Superdex 200, 0.05% DDM)
B3: Enterococcus hirae V-ATPase D-subunit (natural protein)
chain: MRLNVNPTRMELTRLKKQLTTATRGHKLLKDKQDELMRQFILLIRKNNELRQAIEKETQTAMKDFVLAKSTVEEAFIDELLALPAENVSISVVEKNIMSVKVPLMNFQYDETLNETPLEYGYLHSNAELDRSIDGFTQLLPKLLKLAEVEKTCQLMAEEIEKTRRRVNALEYMTIPQLEETIYYIKMKLEENERAEVTRLIKVKNMGTEE
notes: D-subunit (rotor shaft) of the V-type Na+-ATPase of Enterococcus hirae; also called rotor D-subunit; source: E. coli, recombinant; purified as part of the whole EhV-ATPase complex (Ni-NTA, Superdex 200, 0.05% DDM)

What was measured:
[1] = biological target: T1, Enterococcus hirae V-ATPase a-subunit; experiment: cryo-EM structure; detergent-solubilised (0.05% DDM) whole EhV-ATPase, 0.13 mM, with 7 mM ATP, 100 mM Na+ and Mg2+, vitrified during turnover; six states (1, 1', 2, 2', 3, 3') sorted from one sample, whole-complex maps 4.3-7.7 A, V1-focussed maps 3.8-7.7 A; crystal structures and homology models fitted into the maps; settings: both partners purified
[2] = biological target: B2; experiment: as above; settings: both partners purified

Binder | binding result [1] | binding result [2]
B1 | binds | 
B2 | binds | 
B3 |  | binds
